# Data from article PMC3668541, “Production of recombinant 1-deoxy-D-xylulose-5-phosphate synthase from Plasmodium vivax in Escherichia coli^” (FEBS Open Bio, 2013).
# T1: P. vivax DXScc (DXS SH-2, DXS catalytic core) (Plasmodium vivax, UniProt A5K817)
# T1 construct: gene PVX_082790; catalytic core, N-terminal first 210 residues (signal and transit peptide) deleted; codon-optimized gene in E. coli; theoretical monomer 103,921 Da; homodimer
# T1 sequence (A5K817 211-1111): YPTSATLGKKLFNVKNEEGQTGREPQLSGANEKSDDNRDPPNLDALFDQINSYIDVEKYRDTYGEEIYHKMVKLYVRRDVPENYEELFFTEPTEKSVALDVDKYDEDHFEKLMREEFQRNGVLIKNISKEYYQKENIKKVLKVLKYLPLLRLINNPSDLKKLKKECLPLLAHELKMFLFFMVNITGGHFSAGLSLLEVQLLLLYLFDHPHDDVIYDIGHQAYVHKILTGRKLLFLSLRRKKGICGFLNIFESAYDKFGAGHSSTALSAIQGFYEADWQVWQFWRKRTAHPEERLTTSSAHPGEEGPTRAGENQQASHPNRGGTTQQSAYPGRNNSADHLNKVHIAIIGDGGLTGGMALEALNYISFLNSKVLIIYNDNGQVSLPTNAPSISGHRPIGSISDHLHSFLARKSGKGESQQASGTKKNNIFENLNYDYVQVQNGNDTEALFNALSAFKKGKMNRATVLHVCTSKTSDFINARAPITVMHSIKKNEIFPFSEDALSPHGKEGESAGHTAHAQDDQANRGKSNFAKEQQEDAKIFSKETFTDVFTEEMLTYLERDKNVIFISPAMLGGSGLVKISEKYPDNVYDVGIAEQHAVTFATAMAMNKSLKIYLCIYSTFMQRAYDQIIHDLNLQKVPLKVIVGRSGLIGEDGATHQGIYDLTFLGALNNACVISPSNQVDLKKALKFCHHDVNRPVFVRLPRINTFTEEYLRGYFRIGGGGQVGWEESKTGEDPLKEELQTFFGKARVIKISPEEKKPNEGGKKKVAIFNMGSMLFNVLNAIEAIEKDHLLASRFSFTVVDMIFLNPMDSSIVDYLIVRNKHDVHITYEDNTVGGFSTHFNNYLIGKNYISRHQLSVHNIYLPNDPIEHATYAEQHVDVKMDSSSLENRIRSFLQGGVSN
# Assays:
# [1] = biological target: T1, P. vivax DXScc (DXS SH-2, DXS catalytic core); test: DXS–DXR coupled assay; assay type: biochemical
# [2] = biological target: Plasmodium vivax 1-deoxy-D-xylulose-5-phosphate synthase catalytic core (DXScc) (Plasmodium vivax); test: SEC; gel filtration chromatography under non-denaturing conditions of DXScc after Ni-NTA affinity chromatography; buffer and column not shown (Supplementary material)
# DXS–DXR coupled assay [3] = substrate: CC(=O)C(=O)O; test: DXS–DXR coupled assay; assay type: biochemical, Plasmodium vivax; conditions: apparent; 0.1 mM GAP
# Text: (§1) DXS–DXR coupled assay on P. vivax DXScc (DXS SH-2, DXS catalytic core)
# DXS–DXR coupled assay [4] = substrate: O=C[C@H](O)COP(=O)(O)O; test: DXS–DXR coupled assay; assay type: biochemical, Plasmodium vivax; conditions: apparent; 4.0 mM pyruvate
# Text: as §1
molecule,measurement,setting,value
O=C(O)C(=O)CF [β-fluoropyruvate],Ki,[1],200 ± 100 µM
Plasmodium vivax 1-deoxy-D-xylulose-5-phosphate synthase catalytic core (DXScc) (enzyme),stoichiometry N,[2],2
"P. vivax DXScc (DXS SH-2, DXS catalytic core) (Plasmodium vivax Sal-1) (protein, catalytic core, N-terminal first 210 residues (signal and transit peptide) deleted; codon-optimized gene in E. coli; theoretical monomer 103,921 Da; homodimer) YPTSATLGKKLFNVKNEEGQTGREPQLSGANEKSDDNRDPPNLDALFDQINSYIDVEKYRDTYGEEIYHKMVKLYVRRDVPENYEELFFTEPTEKSVALDVDKYDEDHFEKLMREEFQRNGVLIKNISKEYYQKENIKKVLKVLKYLPLLRLINNPSDLKKLKKECLPLLAHELKMFLFFMVNITGGHFSAGLSLLEVQLLLLYLFDHPHDDVIYDIGHQAYVHKILTGRKLLFLSLRRKKGICGFLNIFESAYDKFGAGHSSTALSAIQGFYEADWQVWQFWRKRTAHPEERLTTSSAHPGEEGPTRAGENQQASHPNRGGTTQQSAYPGRNNSADHLNKVHIAIIGDGGLTGGMALEALNYISFLNSKVLIIYNDNGQVSLPTNAPSISGHRPIGSISDHLHSFLARKSGKGESQQASGTKKNNIFENLNYDYVQVQNGNDTEALFNALSAFKKGKMNRATVLHVCTSKTSDFINARAPITVMHSIKKNEIFPFSEDALSPHGKEGESAGHTAHAQDDQANRGKSNFAKEQQEDAKIFSKETFTDVFTEEMLTYLERDKNVIFISPAMLGGSGLVKISEKYPDNVYDVGIAEQHAVTFATAMAMNKSLKIYLCIYSTFMQRAYDQIIHDLNLQKVPLKVIVGRSGLIGEDGATHQGIYDLTFLGALNNACVISPSNQVDLKKALKFCHHDVNRPVFVRLPRINTFTEEYLRGYFRIGGGGQVGWEESKTGEDPLKEELQTFFGKARVIKISPEEKKPNEGGKKKVAIFNMGSMLFNVLNAIEAIEKDHLLASRFSFTVVDMIFLNPMDSSIVDYLIVRNKHDVHITYEDNTVGGFSTHFNNYLIGKNYISRHQLSVHNIYLPNDPIEHATYAEQHVDVKMDSSSLENRIRSFLQGGVSN",Km,DXS–DXR coupled assay [3],870 ± 110 µM
same,kcat,DXS–DXR coupled assay [3],9.5 ± 0.5 s⁻¹
same,kcat/Km,DXS–DXR coupled assay [3],11000 M⁻¹ s⁻¹
same,Km,DXS–DXR coupled assay [4],19 ± 4 µM
same,kcat,DXS–DXR coupled assay [4],11 ± 0.9 s⁻¹
same,kcat/Km,DXS–DXR coupled assay [4],570000 M⁻¹ s⁻¹
